{"source": "IntAct's records for PubMed 21216997", "key": {"[1]": {"target": "ftsz_ecoli ftsZ (UniProt P0A9A6)", "sequence (P0A9A6 whole entry)": "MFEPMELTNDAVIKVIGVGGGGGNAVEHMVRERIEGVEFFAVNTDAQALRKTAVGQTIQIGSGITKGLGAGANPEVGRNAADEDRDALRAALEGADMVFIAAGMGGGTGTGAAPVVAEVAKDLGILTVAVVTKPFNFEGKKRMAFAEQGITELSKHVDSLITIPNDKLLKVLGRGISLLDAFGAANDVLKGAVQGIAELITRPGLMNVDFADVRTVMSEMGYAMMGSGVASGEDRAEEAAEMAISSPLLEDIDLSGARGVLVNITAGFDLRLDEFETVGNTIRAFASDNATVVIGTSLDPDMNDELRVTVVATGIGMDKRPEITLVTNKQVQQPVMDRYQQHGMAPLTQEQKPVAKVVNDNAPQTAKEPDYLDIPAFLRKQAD"}, "[2]": {"target": "ftsz_ecoli ftsZ (UniProt P0A9A6)", "remark": "listed apart in the source"}}, "data": [{"substance": "Cell division protein ZapC (Escherichia coli (strain K12)), P75862 L22P", "values": [{"measurement": "effect of a mutation on the interaction", "setting": "[1]", "result": "disrupting interaction"}, {"measurement": "effect of a mutation on the interaction", "setting": "[2]", "result": "decreasing interaction strength"}]}]}
